Data: the supplement of paper PMC10567573

B1: STX11 (parent)
chain: FQRAMHDYNQAEMKQRDNCKIRIQ

Variants of: B1
Assay: protein stability index of a GFP-peptide fusion (GPS, HEK-293T) (PSI 1-6); higher = more stable
Conditions: c terminus: a fixed tail appended
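Note: lentivirally expressed fusions sorted by FACS into six bins by GFP to DsRed ratio, PSI derived from sequencing read proportions per bin multiplied by bin number.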

Protein stability index, by site and new letter:
C19: F 1.85; G 3.06; T 3.04; W 2.35; E 3.06; I 2.55; P 3.71; N 3.7; D 2.85; H 4.44
Q10: K 2.73; Y 2.17; I 2.31; V 2.67; M 1.92; A 3.1; T 2.39; D 2.59; H 2.16; C 1.87; S 3.35; R 2.06
R16: W 2.43; V 2.63; Q 3.29; H 2.73; L 3.07; E 3.04; C 2.48; I 2.34; M 2.46; F 2.28; G 3.37; D 3.28; K 2.81
M5: L 3.18; E 3.77; C 2.73; I 2.16; K 2.86; Y 1.88; V 2.63; H 2.16; Q 2.95; G 2.9; F 1.8; P 2.64; D 3.65; T 3.15
A11: M 2.02; C 2.29; G 3.09; Q 2.42; K 2.6; P 3.19; I 1.68; N 2.44; Y 3.24; D 3.02; L 3.27; S 2.75; T 2.43; W 2.49
A4: G 2.19; E 3.15; F 2.86; Y 2.59; V 2.28; S 2.8; R 1.9; N 2.78; C 2.21; D 3.4; W 1.77; I 2.18; Q 3.56; L 2.46; P 3.3; H 2.75
N18: W 2.17; P 2.91; V 2.17; E 3.11; Y 2.17; L 2.48; S 2.48; R 2.44; C 2.3; F 2.36; G 2.41
I21: M 3.12; D 3.86; H 2.76; V 1.92; Q 3.04; P 2.9; Y 2.93; N 2.98; T 3.17; S 3.5
Q15: A 2.23; D 2.74; N 2.86; R 2.64; C 2.29; I 2.17; K 2.15; L 2.32; H 2.57; P 2.85; S 2.71; V 2.56; M 1.86; T 3.18
Q2: I 2.27; H 1.81; V 2.55; W 2.19; P 2.76; L 2.65; G 3.82; Y 2.95; C 1.79; T 2.63; R 3.02; S 3.41
M13: Y 2.62; A 2.95; S 3.03; H 2.65; R 2.1; P 3.11; G 3.49; Q 2.62; N 3.5; W 2.5; L 2.35; F 2.5; V 2.52; T 2.79; K 1.98
Y8: L 2.39; R 2.61; G 3.39; H 3; Q 3.83; C 2.62; N 3.83; A 3.64; V 2.89; E 3.47; P 3.32; D 3.4; K 3.58
N9: G 2.33; S 2.91; D 2.84; Q 2.64; Y 1.74; A 2.47; P 3.11; K 2.29; H 2.93; T 2.79; C 2.15; V 2; R 4.08
